“And” between values parts separate entries of the source, which are not always exact repeats. Equal values may be shown once. Read-outs that look alike come from different tables or passages of the source. One block for each substance: values may come before it.
Columns and labels:
[1] = target: EndoH-DyLight (GluA2 ATD, EndoH-digested, DyLight-labeled); assay: fluorescence polarisation
[2] = target: EndoH-digested GluA2S; assay: AUC
[3] = target: EndoH-digested GluA2S; assay: AUC; remark: listed apart in the source
[4] = target: EndoH-digested GluA2S; assay: AUC; remark: listed apart in the source
[5] = target: EndoH-digested GluA2S; assay: AUC; remark: listed apart in the source
[6] = target: EndoH-digested GluA2S; assay: AUC; remark: listed apart in the source
[7] = target: EndoH-digested, FAM-labeled GluA2S; assay: AUC
[8] = target: EndoH-digested, FAM-labeled GluA2S; assay: AUC; remark: listed apart in the source
[9] = target: EndoH-digested, FAM-labeled GluA2S; assay: AUC; remark: listed apart in the source
[10] = target: GluA2 ATD, GnTI−; assay: AUC
[11] = target: GluA2L; assay: AUC
[12] = target: GluA2S, GluA2 ATD with complex glycosylation (293T); assay: AUC
[13] = target: GluA2S, GluA2 ATD with complex glycosylation (293T); assay: AUC; remark: listed apart in the source
[14] = target: GluA2S-FAM; assay: AUC
[15] = target: GluA3 (AMPA receptor amino-terminal domain); assay: AUC

Sequence of EndoH-digested GluA2S (P19491 22-883): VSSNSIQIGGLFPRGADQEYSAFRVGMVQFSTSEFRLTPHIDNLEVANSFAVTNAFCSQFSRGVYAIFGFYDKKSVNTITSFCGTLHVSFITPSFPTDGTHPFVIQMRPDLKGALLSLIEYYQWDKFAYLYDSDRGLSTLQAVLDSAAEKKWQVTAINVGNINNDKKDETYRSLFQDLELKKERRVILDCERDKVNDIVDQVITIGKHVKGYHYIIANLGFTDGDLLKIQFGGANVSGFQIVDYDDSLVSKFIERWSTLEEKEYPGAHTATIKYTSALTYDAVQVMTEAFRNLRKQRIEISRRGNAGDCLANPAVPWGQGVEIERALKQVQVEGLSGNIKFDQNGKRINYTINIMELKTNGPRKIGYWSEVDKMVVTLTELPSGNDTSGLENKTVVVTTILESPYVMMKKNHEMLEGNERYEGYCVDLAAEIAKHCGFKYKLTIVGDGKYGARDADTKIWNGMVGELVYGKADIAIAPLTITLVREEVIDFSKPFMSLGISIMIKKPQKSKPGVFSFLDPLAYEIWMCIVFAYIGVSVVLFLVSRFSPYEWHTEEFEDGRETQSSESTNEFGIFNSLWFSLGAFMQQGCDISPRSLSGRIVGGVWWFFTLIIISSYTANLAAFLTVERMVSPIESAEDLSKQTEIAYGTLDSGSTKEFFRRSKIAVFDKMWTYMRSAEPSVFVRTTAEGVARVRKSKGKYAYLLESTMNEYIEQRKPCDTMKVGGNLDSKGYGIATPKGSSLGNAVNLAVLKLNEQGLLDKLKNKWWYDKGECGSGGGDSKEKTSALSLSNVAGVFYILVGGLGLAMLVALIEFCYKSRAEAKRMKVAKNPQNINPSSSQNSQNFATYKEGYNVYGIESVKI
Sequence of EndoH-DyLight (GluA2 ATD, EndoH-digested, DyLight-labeled) (P19491 22-883): as above
Sequence of GluA2S, GluA2 ATD with complex glycosylation (293T) (P19491 22-883, one chain of several): as the sequence (P19491 22-883) above
Sequence of EndoH-digested, FAM-labeled GluA2S (P19491 22-883): as above
Sequence of GluA3 (AMPA receptor amino-terminal domain) (P19492 23-888): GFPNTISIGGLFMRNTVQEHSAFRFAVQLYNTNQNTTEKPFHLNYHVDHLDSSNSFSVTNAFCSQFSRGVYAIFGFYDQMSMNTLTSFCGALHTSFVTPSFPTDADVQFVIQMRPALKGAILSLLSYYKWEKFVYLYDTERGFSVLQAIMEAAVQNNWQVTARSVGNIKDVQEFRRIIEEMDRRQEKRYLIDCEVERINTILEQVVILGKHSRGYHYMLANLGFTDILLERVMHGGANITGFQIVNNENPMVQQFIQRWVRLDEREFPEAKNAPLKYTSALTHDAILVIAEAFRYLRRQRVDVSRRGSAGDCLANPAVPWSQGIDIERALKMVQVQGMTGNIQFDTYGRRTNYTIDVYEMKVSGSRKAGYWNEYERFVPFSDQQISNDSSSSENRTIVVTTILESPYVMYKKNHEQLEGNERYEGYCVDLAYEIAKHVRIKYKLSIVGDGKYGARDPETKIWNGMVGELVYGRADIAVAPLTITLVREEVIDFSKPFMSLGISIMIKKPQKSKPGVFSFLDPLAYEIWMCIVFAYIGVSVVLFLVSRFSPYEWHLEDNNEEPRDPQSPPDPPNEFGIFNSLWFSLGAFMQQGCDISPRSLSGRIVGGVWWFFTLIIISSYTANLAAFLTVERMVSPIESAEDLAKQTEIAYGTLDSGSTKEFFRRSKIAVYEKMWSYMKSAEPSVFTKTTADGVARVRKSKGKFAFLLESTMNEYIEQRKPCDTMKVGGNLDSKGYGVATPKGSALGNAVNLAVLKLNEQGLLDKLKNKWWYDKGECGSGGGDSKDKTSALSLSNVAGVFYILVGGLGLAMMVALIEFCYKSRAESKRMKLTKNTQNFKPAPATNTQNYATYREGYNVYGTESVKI
Sequence of GluA2L (P19491 22-883): as the sequence (P19491 22-883) above
Sequence of GluA2 ATD, GnTI− (P19491 22-883): as above
Sequence of GluA2S-FAM (P19491 22-883): as above

Substance: EndoH-digested, FAM-labeled GluA2S (domain or fragment)
Kd [7]: 10 nM
Kd [8]: 13 nM
Kd [9]: 2.5 nM

Substance: GluA2L (domain or fragment)
Kd [11]: 5.5 nM

Substance: GluA2S, GluA2 ATD with complex glycosylation (293T) (domain or fragment)
Kd [12]: 6 nM
stoichiometry N [12]: 2
Kd [13]: 8.3 nM

Substance: GluA2S-FAM (domain or fragment)
Kd [14]: 14.9 nM

Second part, the substance after the results:

Kd [1]: 10.8 nM and 11.3 nM and 8.43 nM
Substance: EndoH-DyLight (GluA2 ATD, EndoH-digested, DyLight-labeled) (domain or fragment)

Kd [2]: 30 nM
Kd [3]: 160 nM and 284 nM
stoichiometry N [3]: 2
Kd [4]: 12 nM
Kd [5]: 12 nM and 8.3 nM and 10 nM
Kd [6]: 17 nM
Substance: EndoH-digested GluA2S (domain or fragment)

Kd [10]: 11 nM
Substance: GluA2 ATD, GnTI− (domain or fragment)

Kd [15]: 5600 nM
stoichiometry N [15]: 2
Substance: GluA3 (AMPA receptor amino-terminal domain) (domain or fragment)

Source: paper PMC3664699
